“Also recorded” adds a separate entry of the source. Like-named read-outs stand apart in the source and are kept apart here.

Data set [1] concerns Lewis rats with adjuvant-induced arthritis. To be noted: rat, in vivo.
Data set [2] concerns Balb/C mice with TNBS colitis. Format: in vivo, mouse. Particulars: for TNBS-induced weight loss: Example 15, 8 mg/kg after sensitization and on day 1, day 3, PBS treated animals 15%, FIG. 24. As to the method: Balb/C mice were sensitized with 160 μL of the haptenizing agent TNBS (Sigma-Aldrich, St. Louis, Mo.) at a concentration of 2.5% in 50% ethanol by skin painting. A week later, 120 μl of 1% TNBS in 50% ethanol was administered intrarectally via a 3.5-French catheter. Mice were sacrificed 3 days after intrarectal TNBS administration. Animals were weighed at the time of sensitization, intrarectal administration and every day following such until sacrifice. Clinical assessment was carried out by evaluating weight loss and histopathology of the colon tissue post mortem.
Tissues were fixed in phosphate buffered saline containing 4% formalin and embedded in paraffin. Sections (5 μm) were stained with haematoxylin and eosin. The degree of inflammation was assessed by a blinded pathologist using the following scoring system from 0-4: 0, no signs of inflammation; 1, low level of leucocyte infiltration; 2, moderate level of leucocyte infiltration; 3, high level of leucocyte infiltration, high vascular density, thickening of bowel wall; 4, transmural infiltrations, loss of goblet cells, high vascular density, strong bowel wall thickening, edema.
Twenty Balb/C mice were sensitized via TNBS skin-painting (designated day −7), followed by intrarectal administration of TNBS a week later (designated day 0). The humanized VH2/VK3 antibody (200 μg) was administered at three time points (−6, −2, +1) via i.p. injection to treated animals which were compared with untreated control animals. All the animals were weighed at the time of sensitization, intrarectal administration and every day following such. The animals were sacrificed three days following intrarectal administration (designated +3) following significant weight loss (>5%) in the control group and the colon tissue was removed and sent for histopathological analysis.
Balb/C mice were sensitized via TNBS skin-painting (Day −7), followed by intrarectal administration of TNBS a week later (designated as day 0). The VH2/VK3 variant (8 mg/kg), Rituximab (8 mg/kg) or PBS, were administered following sensitization and on day 1 following intrarectal induction. The mice were weighed at the time of sensitization, intrarectal administration and every day following such. The animals were sacrificed 3 days following intrarectal administration (Day 3) following significant weight loss in the control groups.

Data set [3] has as its system human PBMC. Format: cell-based.
Data set [4] concerns human macrophages (CD14+ cells). It counts as cell-based. To be noted: FITC conjugated, 10 μg; double stained with anti-CD14; FIGS. 12, 16.
In data set [5] the target is T1, adenylyl cyclase-associated protein 1 (CAP1) (Homo sapiens, UniProt Q01518).
T1 construct: made in house; host or cells: E. coli BL21 (modified pET22b vector; cDNA from THP-1 cells)
T1 sequence (Q01518 whole entry): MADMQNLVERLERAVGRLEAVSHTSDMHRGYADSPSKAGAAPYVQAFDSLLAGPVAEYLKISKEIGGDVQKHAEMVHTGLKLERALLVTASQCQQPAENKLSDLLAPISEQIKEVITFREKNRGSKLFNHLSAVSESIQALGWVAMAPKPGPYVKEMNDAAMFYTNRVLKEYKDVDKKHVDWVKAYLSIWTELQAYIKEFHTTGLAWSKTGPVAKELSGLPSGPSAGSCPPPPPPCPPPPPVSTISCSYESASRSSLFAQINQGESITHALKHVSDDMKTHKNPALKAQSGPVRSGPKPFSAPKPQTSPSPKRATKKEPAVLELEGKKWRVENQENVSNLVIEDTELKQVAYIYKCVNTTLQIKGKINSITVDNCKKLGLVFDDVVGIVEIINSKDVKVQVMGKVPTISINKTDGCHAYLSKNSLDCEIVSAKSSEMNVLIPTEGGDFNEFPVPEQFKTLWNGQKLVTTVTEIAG
In words: Western blot on over-expressed His-tagged CAP1. Format: binding. Particulars: control His CREB; FIG. 13.

The subject of data set [6] is Lewis rats with adjuvant-induced arthritis. It counts as in vivo, rat. To be noted: IP 1 mg/kg days 11 and 15, serum day 19, FIG. 19. As to the method: Evaluation of cytokine levels in cell culture or in the serum of animals was carried out utilizing specific kits from R&D SYSTEMS, Minneapolis Minn. USA (according to the manufacturer's instructions).
The inventors furthermore evaluated the in vivo effects of the humanized anti-peptide-6 antibody on the induction of IL-10 secretion in the serum of animals having established arthritis. Lewis rats were immunized with MT/CFA on day 0. Rats were treated on days 11 and 15 with humanized VH2/VK3 (IP 1 mg/kg), or with PBS for comparison. Severity of arthritis was evaluated by clinical scoring, and animals were sacrificed on day 19 and serum levels of various cytokines were measured by ELISA (R&D systems). Serum of healthy untreated animals served as a control.

Data set [7] concerns DBA/1 mice with collagen-induced arthritis. It counts as in vivo, mouse. To be noted: single dose i.p. 200 μg upon clinical signs; vs TBS; FIG. 20. As for the experimental part: Nine week old male DBA/1 mice (Harlan Laboratories, Israel) were injected s.c. at the base of the tail with 200 μg collagen type II emulsified in CFA (Difco). Three weeks later mice were boosted s.c. with the same concentration of collagen II. The severity of arthritis was assessed daily by measuring feet diameter of hind and fore paws by caliper by a blinded observer. As controls, the inventors measured 4 mice of about the same age that were not injected with collagen. The mean of the healthy mice served as a “cut-off” measurement. Starting from day 5 after the boost injection, every mouse with a score value above the average of the healthy mice (in one paw or more) was assigned to one of the treatment groups.
The inventors next examined the in vivo effects of the humanized VH2/VK3 anti-peptide-6 antibody in an additional experimental model of arthritis, the Collagen-Induced Arthritis (CIA) model in mice. Male DBA/1 mice were immunized on day 0 with collagen type II emulsified in CFA to induce arthritis, and a boost dose given on day 21.85% of the mice developed CIA within 2.5 weeks after the boost injection. Upon clinical signs of disease, the mice were treated with a single dose of either the humanized VH2/VK3 anti-peptide-6 antibody (i.p. 200 μg) or tris buffered saline (TBS).

Data set [8] deals with PBMC collected from rheumatoid arthritis (RA) patients. Format: cell-based, human. To be noted: 200 μg, 48 hours, two RA patients, vs without antibody; FIG. 21. As for the experimental part: PBMC were collected from two RA patients and incubated for 48 hours with or without 200 μg of the humanized anti-peptide-6 antibody (VH2/VK3). Supernatants were then assayed for secreted IL-10 content.

The test system of data set [9] is Balb/C mice. To be noted: mouse, in vivo.
The conditions of data set [10]: 11-day period, FIG. 25.

Rituximab: the “pathology findings of joints” value in data set [1] was “marked fibrosis and formation of reactive periosteal bone”. The “severity of AA (arthritis score)” value in data set [1] (ip, 5 mg/kg) is “no effect on AA”. Further, the TNBS-induced weight loss in data set [2] was determined as 14%.

B1: VH2/VK3: humanized anti-peptide-6 IgG1; heavy chain variable region SEQ ID NO: 21, light chain variable region SEQ ID NO: 26 (antibody, V domains shown)
VH: QVTLKESGPALVKPTQTLTLTCSFSGFSLSTSNMGVGWIRQPAGKGLEWLLHILWNDSKYYNPALKSRLTISKDTYKNQVVLTMTNMDPVDTATYYCARMGGYYGNYGYYAMDYWGQGTLVTVSS
VL: QIVLTQSPATLSLSPGERATLSCTASSSVSSSYLHWYQQKPGKAPKLWIYSTSNLASGVPSRFSGSGSGTDYTLTISSLQPEDFATYYCHQYHRSPPTFGQGTKLEIK
modifications: IgG1 constant regions; VH2 amino acid sequence; VK3 amino acid sequence
For the molecule B1, in [3], the “IL-10 induction in PBMC cultures” value is reported as “best IL-10 induction; also recorded: induced higher IL-10 expression than the other variants” and the “IL-10 secreted from human PBMC” value was “significant increase in IL-10 secreted”. In [1] (ip, 2.5 mg/kg), the “severity of established AA (arthritis score)” value is on record as “effective in significantly suppressing the severity of established AA”. In addition, in data set [4], the “binding to CD14 positive cells (FACS)” value is reported as “binds to most of the CD14 positive cells”. Further, in [5], the “recognition of His-tagged CAP1 (Western blot)” value is “recognized the His-tagged CAP1 protein specifically”. Besides, in data set [6] (1 rat per group), the “serum IL-1 levels” value is listed as “remain negligible in all groups”, the “serum IL-17 levels” value is given as “remain negligible in all groups” and the “serum TNFα levels” value is on record as “remain negligible in all groups”. Also, the “serum IL-4 levels” value in data set [6] was “remain negligible in all groups”. Moreover, in [6] (vs PBS), the “serum IFN-γ levels” value was “reduction”, the “serum IL-6 levels” value is listed as “reduction” and the “serum IL-10 levels” value is “clear induction of IL-10 levels”. Besides, the “severity of established CIA (feet diameter)” value in data set [7] was “effective in significantly suppressing the severity of established CIA”. Moreover, the “IL-10 secreted by RA patients' PBMC” value in [8] is “robust increase in the amount of IL-10 secreted”. Also, the “inflammatory response in the colon (microscopic disease score, histology)” value in data set [2] (Example 14, 200 μg i.p. at days -6, -2, +1, sacrifice day 3, p<0.05 vs control, FIG. 23) was “Minimal inflammatory response”. Also, the “weight loss in TNBS colitis” value in [2] (Example 14, 200 μg i.p. at days -6, -2, +1, vs untreated control, FIG. 22) was “effective in suppressing the weight loss”. For the same molecule, the TNBS-induced weight loss in [2] stood at 3.5%. The “pathological findings (heart, liver, lung, spleen, kidney)” value in [9] is “no significant pathological findings”. For the same molecule, the serum half-life entry in data set [10] (500 μg i.p. on day 0) is reported as “approximately 10 days”. Besides, the serum half-life entry in [10] (500 μg s.c. on day 0) is “approximately 10 days”.

The values above are taken from patent US8680241B2 (priority 2009, dated 2014).
